Data on 52 sequences can be found in the supplement of paper PMC10567573.

The nature of the data set: protein stability index of a GFP-peptide fusion (GPS, HEK-293T) (PSI 1-6); higher = more stable.
Where [1] appears, read: treatment: DMSO, c terminus: a fixed tail appended.
[2] abbreviates: treatment: MLN4924 1 uM, 8 h, c terminus: a fixed tail appended.
Where [3] appears, read: treatment: DMSO, c terminus: native.
Setting [4] is: treatment: MLN4924 1 uM, 8 h, c terminus: native.

± gives the standard deviation.
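Further: 24-mer peptide tiles fused after GFP, lentivirally expressed, FACS-sorted into six equal bins by GFP/DsRed ratio, decoded by Illumina sequencing, PSI is the read-weighted mean bin number.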

RKHALERFEQEAVAVDSNLRVREL [CCDC89]: the protein stability index reads like this: under setting [1], 4.21 ± 0.12; under setting [2], 4.47 ± 0.21.
On to RLFLVEDLVDSLKLAVFMWLMTYV [RTN3], for which the protein stability index came out at 2.72 ± 0.65 under setting [1] and 2.64 ± 0.78 under setting [2].
In the same order, the values of RLIKELAKYEYMEEQVILTEKDLL [SAT1] are 2.34 ± 0.34 and 2.18 ± 0.25.
The matching figures for RLRKHQHVGDFARDLAARWKKLVL [ELOA2]: 2.23 ± 0.61 and 2.54 ± 0.9.
The matching figures for RLVAPTEGSLEWDILEVKRLLDHQ [WDR41]: 2.67 ± 0.46 and 2.77 ± 0.29.
Take RLVVQRCSGQKWMIRNWIKHARH [GALNT9]: the protein stability index by setting is: under setting [3], 3.21 ± 0.92; under setting [4], 2.69 ± 0.65.
The sequence RMEKGEPYMSIQPAEDPDDYDDGF [SMARCE1] registered a protein stability index under setting [1] of 5.61 ± 0.076 and a protein stability index under setting [2] of 5.54 ± 0.27.
The matching figures for RNTHKDLLRFAQVFSQMIHLNETV [FEM1B]: 2.74 ± 0.7 and 2.34 ± 0.48.
In the same order, the values of RPCVPPSCHGYTLPGACNIPANVS [KRT33B] are 2.79 ± 0.24 and 2.74 ± 0.17.
In the same order, the values of RPEGYNLKDEEGKLKDLSTVTSLQ [PPP2R2C] are 5.12 ± 0.23 and 5.29 ± 0.17.
As to RPGETGMDVTSRCTLGDPNKLPEG [KLHL20], the protein stability index is 5.16 ± 0.31 under setting [1] and 5.11 ± 0.14 under setting [2].
In the same order, the values of RPPGHHAQHSLMDGYCMFNHVAVA [HDAC6] are 2.4 ± 0.43 and 2.27 ± 0.23.
The matching figures for RQSSVTESTLYPNPYHQPYISRKY [TPRG1]: 3.44 ± 0.31 and 3.67 ± 0.23.
In the same order, the values of RRALAPPSAGFRCCAAPGPHVALA [ANKRD9] are 1.98 ± 0.47 and 2.25 ± 0.31.
Consider RREKAVHRLRVQQAALRAARLRHQ [NOP53], for which the protein stability index by setting is: under setting [1], 3.6 ± 0.41; under setting [2], 3.71 ± 0.34.
In the same order, the values of RRLKTTRLKEYTIKSHSSLPPNNS [DAPK3] are 3.44 ± 0.3 and 3.61 ± 0.28.
In the same order, the values of RRLQEVLGVQTGGPGGRRAGEPGH [DYRK1B] are 4.12 ± 0.3 and 4.18 ± 0.26.
In the same order, the values of RRVLQGLEIELQSQLSMKASLENS [KRT16] are 2.8 ± 0.21 and 2.89 ± 0.4.
As for RSFWELIGEAAKSVKLERPVRGH [S100A14], the protein stability index reads like this: under setting [3], 2.82 ± 0.81; under setting [4], 2.65 ± 0.62.
Turning to RSGRLILWEAPPLGAGGGSLLPGA [NEK8], the protein stability index reads like this: under setting [1], 2.84 ± 0.43; under setting [2], 3.11 ± 0.3.
In the same order, the values of RSNADYQYQLLRCNVDLLKIIQLG [CNOT7] are 2.61 ± 0.46 and 2.51 ± 0.34.
In the same order, the values of RSSHSSDSGGSDVDLDPTDGKLFP [ELF3] are 5.34 ± 0.17 and 5.26 ± 0.32.
In the case of RSSLLACILLSALGYLLLGAATNV [MFSD9], the protein stability index came to 2.9 ± 0.34 under setting [1] and 3.44 ± 0.26 under setting [2].
The matching figures for RSVRRERLKEMKLLRDQFVKALED [FAM9B]: 3.22 ± 0.27 and 3.05 ± 0.57.
In the same order, the values of RTTRGLDPLFGMCEKFLQEVDFFQ [INTS4] are 2.05 ± 0.37 and 2.23 ± 0.26.
The matching figures for RVIACQKTAHDSNVLHVARLPNRQ [WDR41]: 3.52 ± 0.18 and 3.65 ± 0.27.
Consider RYFSLSLMSGALAVNQKIDRESLC [PCDHGC5], for which the protein stability index worked out at 2.03 ± 0.21 under setting [1] and 2.1 ± 0.28 under setting [2].
The matching figures for RYGRRTAIILSSCLLGLGSLVLIL [SLC2A12]: 5.23 ± 0.14 and 5.1 ± 0.14.
On to SAAAATAELLKKQEELNRKAEELD [SCAMP3], for which the protein stability index under setting [1] is 5.72 ± 0.16 and the protein stability index under setting [2] amounted to 5.52 ± 0.48.
In the same order, the values of SAALFYLTNSEYRSEQSVKLRRQV [ZER1] are 2.85 ± 0.57 and 2.83 ± 0.069.
In the case of SAGNAPLNEEINIASSDSEVEIVG [C18orf25], the protein stability index is 5.27 ± 0.31 under setting [1] and 5.46 ± 0.19 under setting [2].
In the same order, the values of SAGVPPSAPLQGAVPPTSSVPPVA [SNAP91] are 4.79 ± 0.13 and 4.82 ± 0.15.
As to SAMLLVTLGKVLKVIVVMRSLFID [MED27], the protein stability index reads like this: under setting [1], 2.9 ± 0.45; under setting [2], 2.85 ± 0.73.
In the same order, the values of SARIVQVVTAEAVAVLKGEQEKEA [MAP2] are 4.82 ± 0.11 and 4.81 ± 0.21.
In the same order, the values of SAVEKEPARAPPEPPHNLFCAPGS [SERTAD3] are 4.95 ± 0.24 and 4.98 ± 0.078.
Consider SCLSSQSSALSQSGGGSTSAAGIE [SPACA3], for which the protein stability index runs as follows: under setting [1], 4.78 ± 0.13; under setting [2], 4.82 ± 0.063.
The matching figures for SCSSDGGIAVWNMDVSREEAPQWL [WDFY1]: 3.07 ± 0.09 and 3.08 ± 0.23.
The matching figures for SDAGSPSLHKHLTIRLNISDVNDN [PCDHGC5]: 3.73 ± 0.17 and 3.71 ± 0.24.
In the same order, the values of SDLSRSSRGELIPISPSTEVGGSG [MYBL2] are 5 ± 0.4 and 4.86 ± 0.34.
In the case of SEAQLTDAETSKLIYDFIEDQGGL [WAS], the protein stability index was 4.53 ± 0.38 under setting [1] and 4.62 ± 0.23 under setting [2].
The matching figures for SELDADHPGFKDNVYRKRRKYFAD [TPH1]: 4.13 ± 0.21 and 4.19 ± 0.2.
Consider SELGDYDPDECGSDYISEFRFAPN [EPB41L3], for which the protein stability index by setting is: under setting [1], 2.22 ± 0.34; under setting [2], 3.12 ± 0.78.
The matching figures for SELTRLIQRIRSEIENVKKQASNL [KRT71]: 2.09 ± 0.068 and 2.22 ± 0.21.
Take SEPHYGHAGTVYGGVMYISGGITH [KLHL13]: the protein stability index came out at 2.17 ± 0.47 under setting [1] and 2.14 ± 0.17 under setting [2].
In the same order, the values of SFCELHLKPHLEGAAFRDHQLLEP [TRIM29] are 2.87 ± 0.14 and 2.93 ± 0.087.
In the same order, the values of SFINFFTSVLATLVVFAVLGFKAN [SLC6A17] are 4.11 ± 0.85 and 3.06 ± 0.36.
In the same order, the values of SFTQEQVADIDGQYAMTRAQRVRA [CTNNB1] are 4.62 ± 0.19 and 4.62 ± 0.14.
As for SGCLPPEPLFEAGDATLASDLQDW [FOXJ1], the protein stability index came to 4.82 ± 0.36 under setting [1] and 4.74 ± 0.18 under setting [2].
Regarding SGCSSELKNRMEYALNMLLQRCN [PLK2], the protein stability index runs as follows: under setting [3], 3.57 ± 0.15; under setting [4], 3.77 ± 0.12.
SGDCDQRFRFPSPILKVQYHPRDQ [RBBP5]: the protein stability index came to 3.8 ± 0.19 under setting [1] and 3.74 ± 0.27 under setting [2].
Consider SGEKPYKCSDCGKAFLTKTMLIVH [ZNF649], for which the protein stability index amounted to 3.52 ± 0.24 under setting [1] and 3.68 ± 0.35 under setting [2].
The matching figures for SGGSGGRGTGQLNRFVQLSGRPHL [KLHDC10]: 3.48 ± 0.28 and 3.65 ± 0.16.
